Measured values as given in patent US20110165066A1.

How the values were obtained:
[1] = molecular target: human IL-13 variant (R130Q) (human) (UniProt P35225); assay: SPR (Biacore)
[2] = molecular target: human IL-13 wild type (human) (UniProt P35225); assay: SPR (Biacore)
[3] = molecular target: human IL-13 wild type (human) (UniProt P35225); assay: ELISA-based receptor binding assay, IL-13 binding to IL-13Rα2/Fc
[4] = molecular target: human IL-13 wild type (human) (UniProt P35225); assay: ELISA-based receptor binding assay, blocking biotin-IL-13 binding to IL-13Rα2/Fc
[5] = molecular target: human IL-13 wild type (human) (UniProt P35225); assay: cell surface-based receptor binding assay, IL-13 binding to IL-13Rα2 on COS cells
[6] = molecular target: human IL-13 wild type (human) (UniProt P35225); assay: cell surface-based receptor binding assay, blocking 125I-IL-13 binding to IL-13Rα2-transfected COS cells

human IL-13 wild type (human), sequence (P35225 other isoform, or with tags, fused parts or gaps limits assumed): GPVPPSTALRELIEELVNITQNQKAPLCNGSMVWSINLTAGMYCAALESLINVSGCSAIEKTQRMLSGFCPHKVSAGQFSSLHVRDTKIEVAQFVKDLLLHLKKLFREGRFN
human IL-13 variant (R130Q) (human), sequence (P35225 35-146 limits assumed, stated change not applied): as the sequence (P35225 other isoform, or with tags, fused parts or gaps limits assumed) above, with R110Q counted along it

Kd [1]: 0.79 nM
Kd [2]: 1.14 nM
% inhibition at 100 nM [3]: 60%
IC50 [4]: 19 nM
% inhibition at 100 nM [5]: 70%
IC50 [6]: 17.6 nM
B1: MJ2-7 (antibody, from another filing, V domains shown)
VH: EVQLQQSGAELVKPGASVKLSCTGSGFNIKDTYIHWVKQRPEQGLEWIGRIDPANDNIKYDPKFQGKATITADTSSNTAYLQLNSLTSEDTAVYYCARSEENWYDFFDYWGQGTTLTVSS
VL: DVLMTQTPLSLPVSLGDQASISCRSSQSIVHSNGNTYLEWYLQKPGQSPKLLIYKVSNRFSGVPDRFSGSGSGTDFTLKISRVEAEDLGVYYCFQGSHIPYTFGGGTKLEIK
